Measured values: patent US20250026827A1 (Alector, published 2025)
Substitutions are numbered along the chain they refer to.

T1: mouse SIRPα D1-Fc (mouse, UniProt P97797 32-150, limits assumed)
T1 construct: domain: D1
T1 sequence (looked up): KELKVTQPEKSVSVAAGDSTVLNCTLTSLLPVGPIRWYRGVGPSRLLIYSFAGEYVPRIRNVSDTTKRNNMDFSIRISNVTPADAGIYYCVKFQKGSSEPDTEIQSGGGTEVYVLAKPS

T2: mouse SIRPβ1 on CHO cells (mouse)
T2 construct: Whole entry
T2 chain: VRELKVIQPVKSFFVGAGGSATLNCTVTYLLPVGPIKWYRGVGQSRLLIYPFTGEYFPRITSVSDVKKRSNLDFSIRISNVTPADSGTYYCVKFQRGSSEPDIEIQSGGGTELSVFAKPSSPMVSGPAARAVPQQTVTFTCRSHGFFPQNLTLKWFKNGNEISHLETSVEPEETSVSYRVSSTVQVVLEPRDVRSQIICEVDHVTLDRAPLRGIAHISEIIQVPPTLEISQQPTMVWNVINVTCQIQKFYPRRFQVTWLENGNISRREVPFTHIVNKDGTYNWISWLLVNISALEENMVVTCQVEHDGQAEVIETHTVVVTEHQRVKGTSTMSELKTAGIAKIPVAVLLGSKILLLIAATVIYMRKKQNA

T3: mouse SIRPα on cells (mouse, UniProt P97797 32-513)
T3 construct: whole, on cells
T3 sequence (looked up): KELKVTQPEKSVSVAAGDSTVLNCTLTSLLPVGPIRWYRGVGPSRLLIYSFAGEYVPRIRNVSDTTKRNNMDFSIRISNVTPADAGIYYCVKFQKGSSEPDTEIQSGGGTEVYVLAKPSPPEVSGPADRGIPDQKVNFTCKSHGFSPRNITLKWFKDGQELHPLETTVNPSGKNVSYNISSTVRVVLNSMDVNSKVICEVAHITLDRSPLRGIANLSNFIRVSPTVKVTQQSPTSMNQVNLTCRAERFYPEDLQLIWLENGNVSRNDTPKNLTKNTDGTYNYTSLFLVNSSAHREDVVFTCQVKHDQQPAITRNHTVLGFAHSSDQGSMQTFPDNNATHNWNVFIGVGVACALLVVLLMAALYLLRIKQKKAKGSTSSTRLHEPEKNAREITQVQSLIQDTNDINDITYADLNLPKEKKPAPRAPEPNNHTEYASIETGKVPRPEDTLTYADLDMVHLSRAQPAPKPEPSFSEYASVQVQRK

B1: SB-13 (antibody, V domains shown)
VH: QVQLQESGPGLVKPSETLSLTCTVSGGSISSYYWSWIRQPPGKGLEWIGSIYYSGSTNYNPSLKSRVTISVDTSKNQFSLKLSSVTAADTAVYYCARGDTSGGAYFDLWGRGTLVTVSS
VL: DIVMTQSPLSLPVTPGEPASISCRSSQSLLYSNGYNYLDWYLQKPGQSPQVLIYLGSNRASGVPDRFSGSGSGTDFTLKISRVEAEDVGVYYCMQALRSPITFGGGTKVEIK
notes: IgG
B2: SB-34 (antibody, V domains shown)
VH: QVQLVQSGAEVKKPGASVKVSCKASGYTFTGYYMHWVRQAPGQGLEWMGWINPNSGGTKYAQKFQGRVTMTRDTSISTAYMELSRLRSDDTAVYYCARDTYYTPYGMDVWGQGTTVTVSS
VL: EIVMTQSPATLSVSPGERATLSCRASQSVSSNLAWYQQKPGQAPRLLIYGASTRATGIPARFSGSGSGTEFTLTISSLQSEDFAVYYCQQDNTFPYTFGGGTKVEIK
notes: IgG
B3: SB-5 (antibody, V domains shown)
VH: not shown
VL: EIVLTQSPATLSLSPGERATITCRASQSVSSYLAWYQQKPGQAPRLLIYDASNRATGIPARFSGSGSGTDFTLTISSLEPEDFAVYYCQQRLFHPPTFGGGTKVEIK
notes: IgG
B4: SB-14 (antibody, V domains shown)
VH: QVQLVQSGAEVKKPGSSVKVSCKASGGTFSSYAISWVRQAPGQGLEWMGGIIPIFGTASYAQKFQGRVTITADESTSTAYMELSSLRSEDTAVYYCARDRGGVGFDYWGQGTLVTVSS
VL: B3 VL with L4M, I21L, T22S, A51S, R91F, L92S, F93Y, H94Y, P96I
notes: IgG
B5: SB-10 (antibody, V domains shown)
VH: QVQLVQSGAEVKKPGSSVKVSCKASGGTFSSYAISWVRQAPGQGLEWMGGIIPIFGTANYAQKFQGRVTITADESTSTAYMELSSLRSEDTAVYYCARGVPRGDLGMDVWGQGTTVTVSS
VL: not shown
notes: IgG
B6: SB-50 (antibody, V domains shown)
VH: QVQLVQSGAEVKKPGSSVKVSCKASGGTFSSYAISWVRQAPGQGLEWMGGIIPIFGTANYAQKFQGRVTITADESTSTAYMELSSLRSEDTAVYYCAREGGGHASYHYYGMDVWGQGTTVTVSS
VL: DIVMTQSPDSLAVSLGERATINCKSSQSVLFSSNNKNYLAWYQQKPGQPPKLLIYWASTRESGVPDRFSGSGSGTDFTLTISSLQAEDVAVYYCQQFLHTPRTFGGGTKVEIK
notes: IgG

Key:
[1] = biological target: T4, human SIRPα domain 1 (D1) Fc fusion (human, UniProt P78324 32-149); test: Octet
T4 construct: also called human SIRPα D1-Fc; Human SIRPα Fc; not shown: C-terminal human IgG1 Fc

[2] = biological target: T1, mouse SIRPα D1-Fc; test: Octet
Protocol: Briefly, Octet affinity measurements were performed by loading IgGs on-line onto AHQ sensors. Sensors were equilibrated off-line in assay buffer for 30 min and then monitored on-line for 60 seconds for baseline establishment. For avid binding measurement, sensors with loaded IgGs were exposed to 100 nM antigen (human SIRPα domain 1 (D1) Fc fusion or SIRPβ1 domain 1 (D1) Fc fusion) for 3 min, and then transferred to assay buffer for 3 min for off-rate measurement. Additional avid binding was determined by loading biotinylated SIRPβ1 monomer on SA sensors and exposing to 100 nM IgG in solution. Monovalent binding measurements were obtained by loading human SIRPα- or SIRPβ1-Fc fusion antigens onto AHQ sensor, followed by exposure to 100 nM anti-SIRPβ1 antibody Fab. Additional monovalent measurements were made by loading biotinylated human SIRPα or SIRPβ1 monomer to SA sensor followed by exposure to 100 nM Fab in solution. Kinetics data were fit using a 1:1 binding model in the data analysis software provided by ForteBio (ForteBio Data Analysis Software 7.0).

[3] = biological target: T5, human SIRPα on cells (human, UniProt P78324 31-504); test: flow cytometry;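 as to FOB: antibodies tested at 1 µg/ml for 30 min on ice against receptor-expressing cells, detected with a PE-labelled secondary antibody, read as mean fluorescence intensity relative to background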
T5 construct: Whole entry

[4] = biological target: T2, mouse SIRPβ1 on CHO cells; test: flow cytometry;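 as to FOB: antibodies tested at 1 µg/ml for 30 min on ice against receptor-expressing cells, detected with a PE-labelled secondary antibody, read as mean fluorescence intensity relative to background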
[5] = biological target: T3, mouse SIRPα on cells; test: flow cytometry;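 as to FOB: antibodies tested at 1 µg/ml for 30 min on ice against receptor-expressing cells, detected with a PE-labelled secondary antibody, read as mean fluorescence intensity relative to background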
[6] = biological target: T6, human SIRPβ1 isoform 1 on cells (human, UniProt O00241 30-398); test: flow cytometry;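 also: antibodies tested at 1 µg/ml for 30 min on ice against receptor-expressing cells, detected with a PE-labelled secondary antibody, read as mean fluorescence intensity relative to background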
T6 construct: On CHO cells (low level), on BWZ/BW5147.G.1.4 cells (reporter cells co-express human DAP12) or on primary human myeloid cells; also called huSIRPβ1; BWZ-huSIRPβ1
Protocol: (§1) Initial characterization of anti-SIRPβ1 antibodies involved determining their ability to bind cell lines expressing human or mouse SIRPβ1. Cells were harvested, plated at 10⁶/ml in a 96-well plate, washed, and incubated in 100 μl FACS buffer containing 1 μg/ml anti-SIRPβ1 antibody for 0.5 hour on ice. Cells were then washed twice and incubated in 100 μl FACS buffer containing 0.5 μg/ml PE-conjugated secondary antibody for 30 minutes on ice. Cells were washed twice in cold FACS buffer and acquired on a BD FACS Canto. Data analysis and calculation of mean fluorescence intensity (MFI) values or 00 positive cells was performed with FlowJo (TreeStar) software version 10.0.7.
(§2) As a negative control, the anti-SIRPβ1 antibodies were also screened for surface binding to CHO cells overexpressing recombinant mouse SIRPβ31. […] Given the high sequence similarity between receptors of the SIRPβ family, anti-SIRPβ1 antibodies were also screened for cross-reactivity to human and mouse SIRPα.

[7] = biological target: T5, human SIRPα on cells; test: flow cytometry; remark: listed apart in the source
Protocol: as §1, §2

[8] = biological target: T2, mouse SIRPβ1 on CHO cells; test: flow cytometry
Protocol: as §1, §2

[9] = biological target: T3, mouse SIRPα on cells; test: flow cytometry; remark: listed apart in the source
Protocol: as §1, §2

T6 sequence (O00241 30-398): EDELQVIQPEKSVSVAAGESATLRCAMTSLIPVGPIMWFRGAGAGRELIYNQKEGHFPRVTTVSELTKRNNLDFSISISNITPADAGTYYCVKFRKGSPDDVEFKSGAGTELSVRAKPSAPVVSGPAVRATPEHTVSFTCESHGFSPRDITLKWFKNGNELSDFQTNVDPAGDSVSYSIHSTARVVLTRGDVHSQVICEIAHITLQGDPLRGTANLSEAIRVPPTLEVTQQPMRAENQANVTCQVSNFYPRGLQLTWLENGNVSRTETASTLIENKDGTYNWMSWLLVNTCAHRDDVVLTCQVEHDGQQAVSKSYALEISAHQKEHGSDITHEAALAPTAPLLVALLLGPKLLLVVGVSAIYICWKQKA

Binder | binding result [1] | binding result [2] | binding result [3] | binding result [4] | binding result [5] | FOB [6] | FOB [7] | FOB [8] | FOB [9]
B1 | no binding (tested: 100 nM) | no binding (tested: 100 nM) | no binding (tested: 1 ug/ml) | no binding (tested: 1 ug/ml) | no binding (tested: 1 ug/ml) | 1.9 fold over background | 1.9 fold over background | 1.2 fold over background | 0.9 fold over background
B2 | no binding (tested: 100 nM) | no binding (tested: 100 nM) | no binding (tested: 1 ug/ml) | no binding (tested: 1 ug/ml) | no binding (tested: 1 ug/ml) | 1.8 fold over background | 2 fold over background | 1.2 fold over background | 1.3 fold over background
B3 | no binding (tested: 100 nM) | no binding (tested: 100 nM) | no binding (tested: 1 ug/ml) | no binding (tested: 1 ug/ml) | no binding (tested: 1 ug/ml) | 1.6 fold over background | 2 fold over background | 1.3 fold over background | 1.5 fold over background
B4 | no binding (tested: 100 nM) | no binding (tested: 100 nM) | no binding (tested: 1 ug/ml) | no binding (tested: 1 ug/ml) | no binding (tested: 1 ug/ml) | 4.5 fold over background | 2.5 fold over background | 1.3 fold over background | 1.2 fold over background
B5 | no binding (tested: 100 nM) | no binding (tested: 100 nM) | no binding (tested: 1 ug/ml) | no binding (tested: 1 ug/ml) | no binding (tested: 1 ug/ml) | 3.8 fold over background | 2.4 fold over background | 1.4 fold over background | 1 fold over background
B6 | no binding (tested: 100 nM) | no binding (tested: 100 nM) | no binding (tested: 1 ug/ml) | no binding (tested: 1 ug/ml) | no binding (tested: 1 ug/ml) | 2.8 fold over background | 2.5 fold over background | 1.2 fold over background | 1.7 fold over background
